Substitutions are numbered along the chain they refer to. Numbers in names are those of the source.

These results are taken from EP3048116A1 (International-Drug-Development-Biotech, dated 2016).

The target in this assay is T1, Purified human sDR5 (human, UniProt O14763 56-182, limits assumed).
T1 construct: Analyte in the Biacore assay; only called 'purified human sDR5'
As to the kind of experiment: SPR (Biacore), MAb captured on immobilised GAH, sDR5 injected at 40 nM to 2.5 nM.

B1: Hz033-Mut7 (antibody, human IgG1, kappa)
heavy: EVQLQQSGAEVVKPGASVKLSCKASGFNIKDTFIHWVKQAPGQGLEWIGRIDPANGNTKYDPKFQGKATITTDTSSNTAYMELSSLRSEDTAVYYCVRGLYTYYFDYWGQGTLVTVSSASTKGPSVFPLAPSSKSTSGGTAALGCLVKDYFPEPVTVSWNSGALTSGVHTFPAVLQSSGLYSLSSVVTVPSSSLGTQTYICNVNHKPSNTKVDKKVEPKSCDKTHTCPPCPAPELLGGPSVFLFPPKPKDTLMISRTPEVTCVVVDVSHEDPEVKFNWYVDGVEVHNAKTKPREEQYNSTYRVVSVLTVLHQDWLNGKEYKCKVSNAALPAPIAKTISKAKGQPREPQVYTLPPSRDELTKNQVSLTCLVKGFYPSDIAVEWESNGQPENNYKTTPLVLDSDGSFFLYSKLTVDKSRWQQGNVFSCSVMHEALHNHYTQKSLSLSPGK
light: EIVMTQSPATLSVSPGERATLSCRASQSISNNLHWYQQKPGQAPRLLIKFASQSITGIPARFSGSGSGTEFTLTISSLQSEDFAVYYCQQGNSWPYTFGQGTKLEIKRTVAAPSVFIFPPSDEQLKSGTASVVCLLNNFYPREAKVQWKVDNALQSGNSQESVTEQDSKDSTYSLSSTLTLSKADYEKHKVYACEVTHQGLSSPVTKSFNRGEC
notes: also called Hz033 Mut7 (K326A E333A P396L)
B1 returned a Kd of 0.426 nM.

B2: Hz033-Mut11 (antibody, human IgG1, kappa)
heavy: B1 heavy with F244L, R293P, Y301L, V306L
light: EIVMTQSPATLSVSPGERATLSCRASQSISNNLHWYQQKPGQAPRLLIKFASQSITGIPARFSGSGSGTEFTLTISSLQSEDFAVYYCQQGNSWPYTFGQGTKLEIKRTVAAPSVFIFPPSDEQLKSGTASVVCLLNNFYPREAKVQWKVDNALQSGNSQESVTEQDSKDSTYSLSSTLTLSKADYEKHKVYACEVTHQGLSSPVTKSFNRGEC
notes: also called Hz033 Mut11 (F243L R292P Y300L V305L K326A E333A P396L)
Turning to B2, binding was put at a Kd of 0.464 nM.

B3: Hz033-Mut8 (antibody, human IgG1, kappa)
heavy: B1 heavy with Y301L
light: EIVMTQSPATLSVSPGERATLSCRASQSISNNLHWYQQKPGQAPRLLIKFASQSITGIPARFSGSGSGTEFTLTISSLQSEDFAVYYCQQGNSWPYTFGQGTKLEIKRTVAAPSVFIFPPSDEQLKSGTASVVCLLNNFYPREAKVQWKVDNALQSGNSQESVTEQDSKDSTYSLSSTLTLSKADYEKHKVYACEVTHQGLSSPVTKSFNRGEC
notes: also called Hz033 Mut8 (Y300L K326A E333A P396L)
For B3, the affinity, expressed as Kd, was 0.4 nM.
